Test [1] has as its system involucrin. The test can be described thus: RT-PCR gene expression in skin, involucrin. The format is in vivo, Rhino mouse. As to conditions: trypsin (0.0001-0.01% (w/v)) daily for five days, dose dependent. The procedure:
(§1) Rhino mice of Example 1 were treated daily with trypsin compositions (0% (w/v), 0.0001% (w/v), 0.001% (w/v), and 0.01% (w/v)), as prepared in Example 2, for five days and sacrificed at day eight. The skins of vehicle treated mice and trypsin-treated mice were obtained as described in Example 3, then their total RNAs were extracted using “RNA Stat-60” reagent available from Tel-Test “B,” Inc. as described in Chomczymski, “Single Step Method of RNA Isolation By Acid Guanidinium Thiocyanate-phenol-chloroform extraction,” 162 Anal. Biochem. 156-59 (1987) which is incorporated herein by reference in its entirety. A sufficient amount of RNase-free DNase available from Promega, Corp. under the tradename “RQ1 RNase-free DNase” was then added to the extracted RNA from each mouse such that each respective product contained 200 ng of DNased-RNA using the procedure set forth in “RNase-free DNase” protocol published by Promega, Corp. (May, 1995). […]
(§2) The PCR products were then analyzed on 2% agarose/ethidium bromide gels according to methods well-known in the art in order to compare the level of expression of certain genes in skins of trypsin-treated and untreated mice. […]

The subject of test [2] is Transglutaminase mRNA. The test can be described thus: RT-PCR gene expression in skin, transglutaminase. It is filed as in vivo, Rhino mouse. As to conditions: increasing concentrations of trypsin (0.0001-0.01% (w/v)) daily for five days. The protocol: as §1, §2
Test [3] deals with utriculi of Rhino mouse skin. The test can be described thus: Rhino mouse utriculus size reduction (whole mount epidermis image analysis). It is filed as in vivo. To be noted: single trypsin 1% (w/v) treatment, analyzed seven days later.
Test [4] concerns utriculi of Rhino mouse skin. Described as above. It is filed as in vivo. To be noted: for Utriculus Size Reduction (%) vs. Liposome Control: topical once daily for five days, sacrificed day 8. From the text: The Rhino mouse has been used as an experimental acne model to screen topically active comedolytic and antikeratinizing agents as described in Sundberg, J. P., “The Hairless and Rhino Mutations, Chromosome 14,” Handbook of Mouse Mutations With Skin and Hair Abnormalities 291-312 (1994), which is incorporated herein by reference in its entirety. A recessive mutation on chromosome 14 results in a mouse with wrinkled skin devoid of body hair by age 25 days. At that time, the end of the first hair cycle, the follicular papillae fail to follow the regressing hair follicles and become isolated in the dermis. […] The upper remnants of the hair follicle are filled with sloughed, cornified cells and form utriculi with a small sebaceous gland at their base, resembling an open comedone. The rhino skin becomes progressively loose, forming folds and ridges, due to the expansion of the surface, secondary to abortive hair follicles filling with cornified debris. The utriculi progressively enlarge, forming pilary cists (pseudocomedones), which are dilated follicular infundibula filled with cornified debris.
RHJ/LE Hairless (“Rhino”) male mice, 5-7 weeks of age, were obtained from Jackson Laboratories (Bar Harbor, Me.), and treated as described in Mezick et al., “Topical and Systemic Effects of Retinoids on Horn-Filled Utriculus Size in the Rhino Mouse: A Model to Quantify “Antikeratinizing” Effects of Retinoids,” 83 J. Invest. Dermatol. 110-113 (1984) (“Mezick”), which is incorporated herein by reference in its entirety.
Rhino mice of Example 1 were topically treated with the trypsin compositions (0.001% (w/v)-1% (w/v)) of Example 2 once daily for five days. Animals were sacrificed at day 8 and image analysis was used to quantify the reduction in utriculi size. For image analysis, whole mount epidermis was processed and microscopic measurements were taken according to the methods described in Mezick as well as Bernerd et al., “The Rhino Mouse Model: The Effects of Topically Applied All-Trans Retinoic Acid and CD271 on the Fine Structure of the Epidermis and Urticuli Wall of Pseudocomedones,” 283(2) Arch. Dermatol. Res. 100-107 (1991) and Bouclier et al., “Quantification of Epidermal Histological Changes Induced by Topical Retinoids and CD271 in the Rhino Mouse Model Using a Standardizing Image Analysis Technique,” 4(2) Skin Pharmacol. 65-73 (1991) which are each incorporated herein by reference in their entirety. Empire Imagins Database version 1.1 was used on a Gateway 2000 P5-100 computer for capturing images. Image Pro Plus version 1.3 was used for measurements and Microsoft Excel version 5.0 for data processing. The mean utriculus diameter (μ) and the mean sebaceous gland size (μ^2) were calculated for each treatment group (3 Rhino mice), using 5 random fields, two measurements per field, per animal. Percent reduction in utriculi diameter was calculated in accordance with the methods described in Finley, D. J., “Parallel Line Assays, Statistical Method in Biological Assay,” Charles Griffen & Company Ltd. 69-104 (1978) which is incorporated herein by reference in its entirety.

B1: trypsin (protein, UniProt P00760 24-246, looked up)
Serine protease 1: IVGGYTCGANTVPYQVSLNSGYHFCGGSLINSQWVVSAAHCYKSGIQVRLGEDNINVVEGNEQFISASKSIVHPSYNSNTLNNDIMLIKLKSAASLNSRVASISLPTSCASAGTQCLISGWGNTKSSGTSYPDVLKCLKAPILSDSSCKSAYPGQITSNMFCAGYLEGGKDSCQGDSGGPVVCSGKLQGIVSWGSGCAQKNKPGVYTKVCNYVSWIKQTIASN
notes: lyophilyzed trypsin from Sigma-Aldrich, a serine protease, in Hepes buffer mixed with GDL liposomes
As to B1, the level of involucrin result in test [1] was “increased”. In addition, in test [2], the “Transglutaminase mRNA level” value was “reduced to below detection level”. In addition, the “effect on utriculus size reduction of a single treatment” value in test [3] is given as “no effect”. For the same molecule, the “Utriculus Size Reduction (%) vs. Liposome Control” value stood at 26.85 ± 4.38% in test [4] (Trypsin 0.001% (w/v) in GDL liposomes); 19.58 ± 3.06% in test [4] (Trypsin 0.005% (w/v) in GDL liposomes); 33.08 ± 2.15% in test [4] (Trypsin 0.01% (w/v) in GDL liposomes); 43.84 ± 0.62% in test [4] (Trypsin 0.05% (w/v) in GDL liposomes); 50.67 ± 0.83% in test [4] (Trypsin 0.1% (w/v) in GDL liposomes); 54.31 ± 1.33% in test [4] (Trypsin 0.5% (w/v) in GDL liposomes). Also, in test [4] (Trypsin 1.0% (w/v) in GDL liposomes), the “Utriculus Size Reduction (%) vs. Liposome Control” value turned out to be 54.85 ± 1.02%. Besides, the “maximal reduction of utriculus size relative to liposomal control” value in test [4] (further increase in trypsin concentration above ~0.1% (w/v)) was not above 55%. Further, the “trypsin concentration at which reduction in utriculus size reached a plateau” value in test [4] (once daily for five days) is listed as ~0.1 % (w/v).
